According to US20180208648A1 (SCHOLAR ROCK, published 2018):

T1: human prodomain GDF11 ARM8 (human, biotinylated, site not stated)
T1 construct: GDF11 prodomain having the GDF8 arm domain; also called human GDF11 ARM8 prodomain
T1 chain: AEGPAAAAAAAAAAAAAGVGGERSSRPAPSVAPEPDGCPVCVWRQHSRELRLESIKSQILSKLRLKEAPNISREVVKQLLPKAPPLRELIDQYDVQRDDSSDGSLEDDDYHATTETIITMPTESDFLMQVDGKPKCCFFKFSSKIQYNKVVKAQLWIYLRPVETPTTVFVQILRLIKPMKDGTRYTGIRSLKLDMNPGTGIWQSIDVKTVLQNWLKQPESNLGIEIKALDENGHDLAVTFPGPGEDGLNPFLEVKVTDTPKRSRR

T2: human proGDF11 ARM8 (human, biotinylated, site not stated)
T2 construct: GDF11 having the GDF8 arm domain
T2 chain: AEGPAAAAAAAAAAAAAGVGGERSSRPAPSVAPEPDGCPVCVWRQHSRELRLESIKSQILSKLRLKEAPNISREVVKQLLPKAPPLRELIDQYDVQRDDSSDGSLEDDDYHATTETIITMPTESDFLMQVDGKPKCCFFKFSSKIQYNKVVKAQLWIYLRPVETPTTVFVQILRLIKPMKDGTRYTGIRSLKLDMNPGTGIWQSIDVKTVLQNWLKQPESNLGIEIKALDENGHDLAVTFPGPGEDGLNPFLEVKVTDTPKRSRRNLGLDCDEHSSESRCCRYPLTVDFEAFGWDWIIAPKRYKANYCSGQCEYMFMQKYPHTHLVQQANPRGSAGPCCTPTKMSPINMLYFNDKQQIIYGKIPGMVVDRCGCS

T3: human mature GDF11 (human, UniProt O95390 299-407, biotinylated, site not stated)
T3 construct: Growth factor domain; also called GDF11 mature growth factor
T3 sequence: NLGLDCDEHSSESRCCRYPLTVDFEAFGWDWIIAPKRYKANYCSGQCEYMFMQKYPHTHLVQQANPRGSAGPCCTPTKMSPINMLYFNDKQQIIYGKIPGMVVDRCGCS

T4: human proGDF8 (human, UniProt O14793 24-375, biotinylated, site not stated)
T4 construct: also called hu proGDF8; human proMyostatin
T4 sequence: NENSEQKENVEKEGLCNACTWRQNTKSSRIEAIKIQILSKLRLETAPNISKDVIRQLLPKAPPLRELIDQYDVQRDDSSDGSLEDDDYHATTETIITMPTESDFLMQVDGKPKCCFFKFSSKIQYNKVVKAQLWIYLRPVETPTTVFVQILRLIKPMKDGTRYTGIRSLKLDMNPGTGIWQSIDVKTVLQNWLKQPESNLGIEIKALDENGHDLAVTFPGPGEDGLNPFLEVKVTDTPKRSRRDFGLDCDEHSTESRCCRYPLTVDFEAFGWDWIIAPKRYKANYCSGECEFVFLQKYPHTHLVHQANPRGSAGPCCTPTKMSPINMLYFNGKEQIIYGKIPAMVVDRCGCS

T5: human proGDF11 (human, UniProt O95390 25-407, biotinylated (NHS-PEG4-Biotin), site not stated)
T5 sequence: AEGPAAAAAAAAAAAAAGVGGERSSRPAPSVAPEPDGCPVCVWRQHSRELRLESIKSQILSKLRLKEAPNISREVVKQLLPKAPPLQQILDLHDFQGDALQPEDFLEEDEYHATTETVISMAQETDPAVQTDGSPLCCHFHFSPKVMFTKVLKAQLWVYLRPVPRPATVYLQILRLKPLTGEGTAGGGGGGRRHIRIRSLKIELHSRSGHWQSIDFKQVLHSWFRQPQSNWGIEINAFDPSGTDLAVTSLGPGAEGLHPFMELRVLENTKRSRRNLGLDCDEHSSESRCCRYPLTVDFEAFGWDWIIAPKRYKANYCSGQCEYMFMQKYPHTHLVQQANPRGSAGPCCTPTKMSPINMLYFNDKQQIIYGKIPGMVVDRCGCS

T6: murine proGDF11 (mouse, UniProt Q9Z1W4 25-405, biotinylated, site not stated)
T6 sequence: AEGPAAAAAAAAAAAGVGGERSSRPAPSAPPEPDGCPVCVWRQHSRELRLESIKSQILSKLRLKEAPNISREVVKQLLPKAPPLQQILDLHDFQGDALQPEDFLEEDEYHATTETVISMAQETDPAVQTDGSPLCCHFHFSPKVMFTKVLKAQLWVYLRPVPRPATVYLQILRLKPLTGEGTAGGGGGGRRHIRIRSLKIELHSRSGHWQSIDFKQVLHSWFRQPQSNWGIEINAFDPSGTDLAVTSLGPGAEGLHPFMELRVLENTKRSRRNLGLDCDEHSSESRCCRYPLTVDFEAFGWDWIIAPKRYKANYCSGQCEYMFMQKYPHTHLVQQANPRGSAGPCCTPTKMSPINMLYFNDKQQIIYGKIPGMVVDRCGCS

T7: human proActivin A (human, UniProt P08476 21-426, biotinylated (immobilized on streptavidin biosensors), site not stated)
T7 construct: also called human Activin A; Inhibin-beta A pro-protein
T7 sequence: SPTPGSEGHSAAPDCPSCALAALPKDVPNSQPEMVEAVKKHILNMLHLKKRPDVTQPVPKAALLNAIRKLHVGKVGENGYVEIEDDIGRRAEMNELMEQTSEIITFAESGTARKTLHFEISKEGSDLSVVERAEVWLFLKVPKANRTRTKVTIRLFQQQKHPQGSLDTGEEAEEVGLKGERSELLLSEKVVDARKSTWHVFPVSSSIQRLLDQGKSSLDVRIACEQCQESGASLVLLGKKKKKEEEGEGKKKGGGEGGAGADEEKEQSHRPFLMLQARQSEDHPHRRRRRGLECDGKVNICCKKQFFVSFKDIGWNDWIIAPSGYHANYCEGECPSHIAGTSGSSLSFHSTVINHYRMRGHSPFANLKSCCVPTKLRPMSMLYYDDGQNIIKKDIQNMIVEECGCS

T8: human latent GDF11 (human, UniProt O95390 25-407, biotinylated, site not stated)
T8 construct: also called hu latent GDF11
T8 sequence: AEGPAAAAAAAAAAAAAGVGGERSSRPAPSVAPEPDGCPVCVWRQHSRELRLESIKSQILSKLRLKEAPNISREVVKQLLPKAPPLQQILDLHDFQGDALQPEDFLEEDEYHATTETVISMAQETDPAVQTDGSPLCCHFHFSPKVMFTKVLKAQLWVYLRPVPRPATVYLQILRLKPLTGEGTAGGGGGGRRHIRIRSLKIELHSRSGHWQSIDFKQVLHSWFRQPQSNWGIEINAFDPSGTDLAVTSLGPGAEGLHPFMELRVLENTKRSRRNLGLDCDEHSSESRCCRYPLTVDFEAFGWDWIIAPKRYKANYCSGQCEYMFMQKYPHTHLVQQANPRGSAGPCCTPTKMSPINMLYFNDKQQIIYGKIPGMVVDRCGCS


Assays:
[1] = target: T1, human prodomain GDF11 ARM8; assay: ELISA, biotinylated antigen on neutravidin plate
From the text: (§1) Candidate clones were converted to human IgG1 format. Full-length IgG antibodies were further characterized by ELISA for binding to the human and murine pro- and latent-forms of myostatin and GDF11. Antibodies were also screened for binding to the Myostatin prodomain (SEQ ID NO: 85), proTGFDβ1 (human and murine), the mature growth factor of Myostatin (SEQ ID NO: 89), the GDF11 mature growth factor (SEQ ID NO: 90), and proActivin A (SEQ ID NO: 84). Chimeric constructs which swapped portions of the prodomains of Myostatin and GDF11 were designed and produced. For example proGDF11 arm8 (SEQ ID NO: 112) refers to GDF11 having the GDF8 arm domain, and prodomain GDF11 arm8 (SEQ ID NO: 114) refers to the GDF11 prodomain having the GDF8 arm domain. These chimeric proteins were assayed for interaction with screening antibodies by ELISA and allowed for the assessment of binding of antibodies to the ARM or straight jacket portions of the GDF11 prodomain complex. Antibodies were selected based on their cross-reactivity with pro- and latent human and murine GDF11, with no interactions with GDF8, Activin, or TGFβ proteins. Activin A is a homodimer of inhibin-beta A subunits. For example, Inhibin-beta A can heterodimerize with other proteins to produce different Activin proteins.
(§2) Enzyme-linked immunosorbent assay (ELISA) analysis is carried out to assess antibody binding. 96-well ELISA assay plates are coated with neutravidin, a deglycosylated version of streptavidin with a more neutral pH. Target proteins are expressed with or without histidine (His) tags and subjected to biotinylation. Biotinylated target proteins are incubated with neutravidin-coated ELISA assay plates for two hours at room temperature and unbound proteins are removed by washing three times with wash buffer (either 25 mM Tris, 150 mM NaCl, 0.05% TWEEN®-20, or 20 mM Hepes pH 7.5, 500 mM NaCl, 0.05% TWEEN®-20). Primary antibodies being tested are added to each well and allowed to incubate at room temperature for 1 hour or more. Unbound antibody is then removed by washing three times with wash buffer. Secondary antibodies capable of binding to primary antibodies being tested and conjugated with detectable labels are then incubated in each well for 30 minutes at room temperature. Unbound secondary antibodies are removed by washing three times with wash buffer.

human proGDF11 ARM8 = target: T2, human proGDF11 ARM8; assay: ELISA, biotinylated antigen on neutravidin plate
From the text: as §1, §2

human mature GDF11 = target: T3, human mature GDF11; assay: ELISA, biotinylated antigen on neutravidin plate
From the text: as §1, §2

human proGDF8 = target: T4, human proGDF8; assay: ELISA, biotinylated antigen on neutravidin plate
From the text: as §1, §2

human proGDF11 [2] = target: T5, human proGDF11; assay: cell-based or functional assay
murine proGDF11 [3] = target: T6, murine proGDF11; assay: cell-based or functional assay
human proGDF11 [4] = target: T5, human proGDF11; assay: BLI (ForteBio Octet)
murine proGDF11 [5] = target: T6, murine proGDF11; assay: BLI (ForteBio Octet)
human proGDF11 [6] = target: T5, human proGDF11; assay: cell-based or functional assay; remark: listed apart in the source
human proActivin A = target: T7, human proActivin A; assay: BLI (ForteBio Octet QKe), antigen on streptavidin biosensor, antibody in solution
human proGDF11 [7] = target: T5, human proGDF11; assay: cell-based or functional assay; remark: listed apart in the source
human latent GDF11 = target: T8, human latent GDF11; assay: BLI (ForteBio Octet)

Row | Binder | binding result [1] | binding result (human proGDF11 ARM8) | binding result (human mature GDF11) | binding result (human proGDF8) | Human proGDF11 % Inhibition (proGDF11 activation assay, CAGA luciferase reporter in 293T cells) (human proGDF11 [2]) | Murine proGDF11 % inhibition (proGDF11 activation assay, CAGA luciferase reporter in 293T cells) (murine proGDF11 [3]) | Kd (human proGDF11 [4]) | Kd (murine proGDF11 [5]) | EC50, proGDF11 activation assay at 50 nM proGDF11 (human proGDF11 [6]) | binding result (human proActivin A) | EC50 (inhibition of proGDF11 activation; CAGA luciferase reporter in 293T cells after overnight proteolysis) (human proGDF11 [7]) | Kd (human latent GDF11)
1 | GDF11 Inh-3 (antibody, V domains shown, also called Clone GDF11 Inh-3) VH: QVQLVQSGGGVVQPGRSLRLSCAASGFTFSSYAMHWVRQAPGKGLEWVAVISYDGSNEYYADSVKGRFTISRDNSKNTLYLQMNSLRAEDTAVYYCAKDFWSGYPQYNWFDPWGQGTLVTVSS VL: EIVMTQSPATLSLSAGERATLSCRASQSVSNYLAWYQQKPGQAPRLLIYDASNRATGIPARFSGSGSGTDFTLTISSLEPEDFAVYYCQQYGSAPLTFGGGTNVEIKR | no binding | no binding | no binding | no binding | 87% | 88% | 0.71 nM | 0.937 nM |  |  |  | 
2 | GDF11 Inh-7 (antibody, V domains shown, also called Clone GDF11 Inh-7) VH: EVQLVQSGGGLVQPGGSLRLSCAASGFTFSSYSMNWVRQAPGKGLEWVSYISSSSSTIYYADSVKGRFTISRDNAKNSLYLQMNSLRAEDTAVYYCARDGIYYDSSGYYDLFDYWGQGTLVTVSS VL: not shown |  |  | no binding |  | 74% | 53% | 2.12 nM |  |  |  |  | 

Next, values leading:

Row | binding result [1] | binding result (human proGDF11 ARM8) | binding result (human mature GDF11) | binding result (human proGDF8) | Human proGDF11 % Inhibition (proGDF11 activation assay, CAGA luciferase reporter in 293T cells) (human proGDF11 [2]) | Murine proGDF11 % inhibition (proGDF11 activation assay, CAGA luciferase reporter in 293T cells) (murine proGDF11 [3]) | Kd (human proGDF11 [4]) | Kd (murine proGDF11 [5]) | EC50, proGDF11 activation assay at 50 nM proGDF11 (human proGDF11 [6]) | binding result (human proActivin A) | EC50 (inhibition of proGDF11 activation; CAGA luciferase reporter in 293T cells after overnight proteolysis) (human proGDF11 [7]) | Kd (human latent GDF11) | Binder
3 | no binding |  |  | no binding | 77% | 63% | 0.75 nM |  |  |  |  |  | GDF11 Inh-6 (antibody, V domains shown, also called Clone GDF11 Inh-6) VH: QVQLQESGPGLVKPSETLSLTCTVSGGSISSSSYYWGWVRQPPGKGLEWIGEIYHSGSTNYNPSLKSRVTISVDTSKNQFSLKLSSVTAADTAVYYCARVGTSWEYYFDYWGQGTLVTVSS VL: DIQMTQSPASLSASVGDRVTITCRTSQHIINYLNWYQQRPGKAPNLLIYKASTLQSGVPSRFSGSGSGTHFTLTISSLQPEDFATYYCQQYQSYPITFGQGTRLEIKR
4 |  |  |  |  | 96% | 90% | < 0.001 nM |  | 30.1 nM | no binding (tested: 50 µg/mL) | ~30.3 nM | < 0.001 nM | GDF11 Inh-5 (antibody, V domains shown, also called Clone GDF11 Inh-5) VH: EVQLVQSGAEVKKPGASVKVSCKASGYTFTGYYIYWVRQAPGQGLEWMGWIRPNSGDTNYAQKFQDRLTMTRDTSISTAYMELSRLRSDDTAVYYCAGNYDILTGYQAPLGYWGQGALVTVSS VL: DIVLTQSPATLSVSPGERATLSCRASQRVISNYLAWYQQKPGQAPRLLIYGASSRATGIPDRFSGSGSGTDFTLSISRLEPEDFAVYYCQHYGPFGGGTKVEIKR
5 |  |  | no binding |  | 91% | 80% | 0.49 nM | 0.848 nM | 87.1 nM |  |  |  | GDF11 Inh-1 (antibody, V domains shown, also called Clone GDF11 Inh-1) VH: EVQLLESRGGLVQPGRSLRLSCAASGFTFDDYAMHWVRQAPGKGLEWVSGISWNSGSIGYADSVKGRFTISRDNTKNSLYLQMNSLRAEDTGVYYCAREVTGDLDYWGQGTLVTVSS VL: EIVMTQSPGTLSLSPGERATLSCRASQFLSSTYLAWYQQRPGQAPRLLIYSASNRATGVPDRFSGSGSGTDFTLKISRVEAEDVGVYYCMQATHWPYTFGQGTKLEIKR
